# Values quoted from earlier work, collected in patent publication US10195287B2, “Biologically active insulin derivatives” (Chemical & Biopharmaceutical Laboratories of Patras S.A., priority 2013, dated 2019).
# Biological target: human receptor (Homo sapiens, UniProt P06213)
# Settings: compared with human insulin
row,activity on the human receptor,Substance
1,approximately the same strength,Porcine insulin: animal insulin with a single amino acid variation from the human variety
2,approximately the same strength,bovine insulin: animal insulin that varies from human insulin by three amino acids
